Assay results: the Human Domainome abundance scans (Beltran et al. 2025)

B1: Zinc finger homeobox protein 4, residues 2562 to 2617; numbered along this chain, Q86UP3 (parent)
chain: RLRTTITPEQLEILYEKYLLDSNPTRKMLDHIAREVGLKKRVVQVWFQNTRARERK
B2: RAS guanyl-releasing protein 1, residues 539 to 593; numbered along this chain, O95267 (parent)
chain: GFPHNFQETTYLKPTFCDNCAGFLWGVIKQGYRCKDCGMNCHKQCKDLVVFECKK

Variants of: B1
Assay: abundance fitness (aPCA) (normalised: wild type 0, dead -1); higher = more abundant; growth selection in yeast, the domain comes from the species named
Conditions: Homo sapiens

Abundance fitness of substitutions, site by site:
K56: D 0.085, T 0.267, E 0.273, G 0.184, A -0.241, R -0.701, I -0.305, V -0.282, M -0.023, S -0.043
N49: I 0.12, A 0.043, K -0.489, W -0.422, S -0.009, L -0.25, T -0.102, R -0.477, M 0.029, Q -0.104, P -0.73, D -0.043, E 0.253, V -0.125, H -0.423, G -0.182, Y -0.414, C -0.282
E54: P -0.545, G -0.362, Q -0.664, T -0.737, F 0.025, D -0.122, Y -0.715, S -0.254, C -0.811, H -0.672, I -0.283, L -0.201, K -0.722, R -0.615, W -0.307, V -0.523, A -0.433, M -0.09
R53: E 0.394, A -0.014, P -0.373, H 0.104, W -0.315, D 0.226, S 0.168, K 0.14, I -0.156, G 0.054, C 0.045, F 0.066, M 0.077, Q 0.145, T 0.021, N 0.052, L 0.039, Y -0.62, V -0.03
R55: N 0.297, G 0.11, W -0.114, H -0.086, Q -0.078, S 0.09, I 0.053, Y 0.05, C 0.063, M 0.128, F -0.23, V 0.276, K -0.035, D 0.262, A 0.107, L 0.128, P 0.001
A52: K -0.086, S -0.197, V -0.327, E 0.283, D 0.384, M -0.268, T -0.372, L -0.226, Y -0.781, G -0.096, N 0.189, Q -0.035, W -0.347, F -0.498, H -0.172, C -0.702, P -0.693, R -0.321
R51: G -0.151, F -0.08, M -0.021, W 0.057, P -1.05, T -0.242, C -0.267, A 0.17, K 0.039, L 0.234, Y -0.192, N 0.156, E -0.15, S 0.086, I 0.134, V 0.017, H 0.32
T50: K 0.028, A 0.041, C -0.345, F -0.069, V -0.068, M -0.094, P -0.738, L -0.137, I -0.042, E 0.265, R 0.08, H -0.034, S 0.06, N -0.127, G -0.367, Y -0.107, W -0.097
Q48: V -0.152, R -0.166, Y -0.168, S -0.049, W -0.556, T 0.008

Variants of: B2
Assay: as above
Conditions: Homo sapiens

Abundance fitness of substitutions, site by site:
F2: H -0.048, K -0.108, Q -0.282, G -0.335, T -0.15, Y -0.019, E -0.343, D -0.086, R -0.118, I 0.097, W -0.523, M -0.051, N 0.214, A -0.261, V -0.282, C -0.214
P3: C 0.291, A -0.047, D 0.677
G1: M 0.477, E 0.003, S 0.218, D 0.188, R -0.187, V -0.007, W -0.46, L -0.027
